Legend:
human serum albumin [1] = target: T1, human serum albumin (human, UniProt P02768 25-609); assay: reflection interference spectroscopy, HSA sensor chip, 1000 µM peptide
T1 construct: Adsorbed on an unmodified silicon nitride sensor chip (HSA sensor chip) from a 0.2 µM solution; also called HSA

human serum albumin [2] = target: T1, human serum albumin; assay: coefficient b of the two-exponential dissociation fit (Equation I), HSA sensor chip, 1000 µM peptide
human serum albumin [3] = target: T1, human serum albumin; assay: reflection interference spectroscopy, HSA sensor chip, 2 µM peptide
Method: Then, a running buffer (0.1 M sodium phosphate buffer (pH 6.9)) was injected into a flow path formed between the substrate and the flow cell at a flow rate of 100 μL/min for 30 minutes or more so as to equilibrate the surface of the substrate. […] In injecting the running buffer or the sample, a liquid feeding pump for high-performance liquid chromatograph [product name: Prominence UFLC, manufactured by Shimadzu Corporation] and an autosampler [product name: Chromaster, manufactured by Hitachi, Ltd.] were used. As a result, a solid phase carrier having HSA immobilized on the surface thereon (hereinafter also referred to as “HSA sensor chip”) was obtained. In injecting the HSA solution into the flow path, the wavelength variation Δλ of bottom wavelength of the spectral reflectivity curve of the reflected light when the flow path was irradiated with white light was measured with time, whereby a sensorgram showing the time-dependent change of the wavelength variation Δλ was obtained.

human serum albumin [4] = target: T1, human serum albumin; assay: reflection interference spectroscopy, HSA sensor chip, 10 µM peptide
Method: (§1) The wavelength variation Δλ of the bottom wavelength of the spectral reflectivity curve of the reflected light (the layer thickness change amount Δλ) when the flow path was irradiated with white light was measured with time, whereby a sensorgram was obtained.

human serum albumin [5] = target: T1, human serum albumin; assay: coefficient b of the two-exponential dissociation fit (Equation I), HSA sensor chip, 10 µM peptide
Method: as §1

human serum albumin [6] = target: T1, human serum albumin; assay: reflection interference spectroscopy, HSA sensor chip, 100 µM peptide
Method: as §1

human serum albumin [7] = target: T1, human serum albumin; assay: reflection interference spectroscopy, HSA sensor chip, 1 µM peptide
human serum albumin [8] = target: T1, human serum albumin; assay: reflection interference spectroscopy, HSA sensor chip, 50 µM peptide
human serum albumin [9] = target: T1, human serum albumin; assay: reflection interference spectroscopy, HSA sensor chip, 10 µM lysozyme

(His) 3 (peptide)
koff (human serum albumin [1]): 0.00257 s⁻¹ | maximum layer thickness change amount Δλ (human serum albumin [1]): 0.027 nm | b value (human serum albumin [2]): 0.344

B1: fibrinogen α (peptide)
peptide: DEAGSEADHEGTHSTKRGHAKSRPV
notes: Named as the protein, but a 25-residue peptide was used
binding result (human serum albumin [3]): binds

RRRRRRRRRR (also called (Arg)10) [arginine decapeptide]
binding result (human serum albumin [3]): binds

HHHHHHHHHHHHHHHHHHHH (also called (His)20) [histidine eicosa peptide]
binding result (human serum albumin [3]): binds

HHHHHHHHHH [(His) 10]
koff (human serum albumin [4]): 0.00073 s⁻¹ | maximum layer thickness change amount Δλ (human serum albumin [4]): 0.086 nm | b value (human serum albumin [5]): 0.093

KKKKKKKKKK [(Lys) 10]
koff (human serum albumin [6]): 0.0002 s⁻¹

GVPGLGVGAGV [ELN 11mer]
koff (human serum albumin [7]): 0.00016 s⁻¹

B2: ACTH partial peptide at the 1-24 positions (peptide)
peptide: SYSMEHFRWGKPVGKKRRPVKVYP
notes: Synthetic peptide from Biologica Co, Ltd; also called ACTH24
binding result (human serum albumin [3]): binds

AWAVARLSQRFPK [IS 13mer]
koff (human serum albumin [8]): 0.0171 s⁻¹

YSMEHFRWGKPVGKK [ACTH15]
koff (human serum albumin [4]): 0.0115 s⁻¹ | maximum layer thickness change amount Δλ (human serum albumin [4]): 0.061 nm | b value (human serum albumin [5]): 0.029

B3: Kininogen (peptide)
peptide: HNLGHGHKHERDQGHGHQR
notes: Named as the protein, but a 19-residue peptide was used
koff (human serum albumin [6]): 0.00493 s⁻¹

B4: Lysozyme (enzyme)
chain: KVYGRCELAAAMKRLGLDNFRGYSLGNWVCAAKFESNFNTHATNRNTDGSTDYGILQINSRWWCNDGRTPGSRNLCNIPCSALLSSDTIASVNCAKKIVSDGNGMNAWVAWRKRCKGTDVNAWTRGCRL
koff (human serum albumin [9]): 0.0066 s⁻¹

B5: ACTH partial peptide at the 1-41 positions (peptide)
peptide: GPSYSMEHFRWGKPVGKKRRPVKVYPNGAEDESAEAFPLEF
notes: Synthetic peptide from Biologica Co, Ltd; also called ACTH41
binding result (human serum albumin [3]): binds

B6: inter-α-trypsin inhibitor heavy chain 4 (peptide)
peptide: GESRNRNVHSGSTFFKYYLQGAKIPKPEASFS
notes: Named as the protein, but a 32-residue peptide was used; also called ITIH4
binding result (human serum albumin [3]): binds
